Blank lines part the entries; values can stand above or below the substance they belong to.
Experiments:
[1] = biological target: Domain-11 of human M6P/IGF2R (D11), C-terminally His-tagged (human) (UniProt P11717); assay: radioligand binding; competition of cold ligand with [125I]-monoiodotyrosyl-Tyr2-IGF2 for immobilized D11; Kd of the tracer 2 nM
[2] = biological target: His-tagged IGFBP3 (UniProt P17936); assay: radioligand binding; saturation binding of 0-5 nM [125I]-monoiodotyrosyl-Tyr2-IGF2 to His-tagged IGFBP3 immobilized on a 96-well plate via neutravidin and Ni-NTA iBodies; 16 h at 5 °C, 100 mM HEPES pH 7.6, 100 mM NaCl, 1% BSA; nonspecific binding with 10 µM unlabeled IGF2
[3] = biological target: mannose-6-phosphate/IGF2 receptor (M6P/IGF2R), native in R- cells (mouse (endogenous in R- cells)) (UniProt Q07113); assay: radioligand binding; saturation binding of 0-5 nM [125I]-monoiodotyrosyl-Tyr2-IGF2 to 14,000 R- cells per well; 16 h at 5 °C, 100 mM HEPES pH 7.6, 100 mM NaCl, 1% BSA; nonspecific binding with 10 µM unlabeled IGF2; one-site fit
[4] = biological target: His-tagged IGFBP3 (UniProt P17936); assay: radioligand binding; saturation binding of 0-5 nM [125I]-monoiodotyrosyl-IGF2 to His-tagged IGFBP3 (25 ng/well) immobilized via neutravidin and Ni-NTA iBodies; 16 h at 5 °C, 100 mM HEPES pH 7.6, 100 mM NaCl, 1% BSA
[5] = biological target: IGFBP3:ALS complex, preformed on immobilized His-tagged ALS (UniProt P35858); assay: radioligand binding; saturation binding of 0-5 nM [125I]-monoiodotyrosyl-IGF2 to IGFBP3 (no His-tag, 25 ng/well) preformed in complex with His-tagged ALS (10 ng/well) immobilized via neutravidin and Ni-NTA iBodies; 16 h at 5 °C, 100 mM HEPES pH 7.6, 100 mM NaCl, 1% BSA
[6] = biological target: IGF1 receptor (IGF1R) (human) (UniProt P08069); assay: radioligand binding; competition of cold ligand with [125I]-iodotyrosyl-IGF1 for human IGF-1R on R+39 mouse fibroblasts; one-site fit; affinity relative to IGF1
[7] = biological target: Domain-11 of human M6P/IGF2R (D11) (human) (UniProt P11717); assay: radioligand binding; competition of cold ligand with [125I]-monoiodotyrosyl-Tyr2-IGF2 for immobilized D11 (as in ref. 33); affinity relative to IGF2
[8] = biological target: insulin receptor isoform A (IR-A) (human) (UniProt P06213); assay: radioligand binding; competition of cold ligand with [125I]-monoiodotyrosyl-TyrA14-insulin for human IR-A on whole IM-9 lymphocytes; one-site fit; affinity relative to human insulin
[9] = biological target: insulin receptor isoform B (IR-B) (human) (UniProt P06213); assay: radioligand binding; competition of cold ligand with [125I]-monoiodotyrosyl-TyrA14-insulin for human IR-B on transfected mouse fibroblasts; one-site fit; affinity relative to human insulin
[10] = biological target: IGFBP3:ALS complex, preformed on immobilized His-tagged ALS (UniProt P35858); assay: radioligand binding; competition of cold ligand (10^-12-10^-6 M) with [125I]-monoiodotyrosyl-Tyr2-IGF2 (43,000 cpm) for the IGFBP3:ALS complex immobilized through the His-tag of ALS; 16 h at 5 °C, HEPES pH 7.6; affinity relative to IGF2
[11] = biological target: His-tagged IGFBP3 (UniProt P17936); assay: radioligand binding; competition of cold ligand (10^-12-10^-6 M) with [125I]-monoiodotyrosyl-Tyr2-IGF2 (43,000 cpm) for His-tagged IGFBP3 immobilized via neutravidin and Ni-NTA iBodies; 16 h at 5 °C, HEPES pH 7.6; affinity relative to IGF2
[12] = biological target: mannose-6-phosphate/IGF2 receptor (M6P/IGF2R), native in R- cells (mouse (endogenous in R- cells)) (UniProt Q07113); assay: radioligand binding; competition of cold ligand (10^-12-10^-6 M) with [125I]-monoiodotyrosyl-Tyr2-IGF2 (43,000 cpm) for M6P/IGF2R on R- cells; 16 h at 5 °C, 100 mM HEPES pH 7.6, 100 mM NaCl, 1% BSA; affinity relative to IGF2
[13] = biological target: IGFBP3:ALS complex, preformed on immobilized His-tagged ALS (UniProt P35858); assay: radioligand binding; competition of cold ligand (10^-12-10^-6 M) with [125I]-monoiodotyrosyl-Tyr2-IGF2 for the IGFBP3:ALS complex immobilized through the His-tag of ALS; 16 h at 5 °C, 100 mM HEPES pH 7.6, 100 mM NaCl, 1% BSA; Kd of the tracer 5.9 nM
[14] = biological target: human IGF1 receptor in transfected mouse fibroblasts (R+39 cells) (human) (UniProt P08069); assay: radioligand binding; competition of cold ligand with [125I]-iodotyrosyl-IGF1 on R+39 cells (mouse fibroblasts with human IGF-1R); Kd by one-site fit, Kd of the tracer 0.2 nM
[15] = biological target: human insulin receptor isoform B (IR-B) in transfected mouse fibroblasts (human) (UniProt P06213); assay: radioligand binding; competition of cold ligand with [125I]-monoiodotyrosyl-TyrA14-insulin on mouse fibroblasts transfected with human IR-B; Kd by one-site fit, Kd of the tracer 0.3 nM
[16] = biological target: His-tagged IGFBP3 (UniProt P17936); assay: radioligand binding; competition of cold ligand (10^-12-10^-6 M) with [125I]-monoiodotyrosyl-Tyr2-IGF2 for His-tagged IGFBP3 immobilized on a 96-well plate via neutravidin and Ni-NTA iBodies; 16 h at 5 °C, 100 mM HEPES pH 7.6, 100 mM NaCl, 1% BSA
[17] = biological target: native M6P/IGF2R in R- cells (mouse embryonic fibroblasts) (mouse (endogenous in R- cells)) (UniProt Q07113); assay: radioligand binding; competition of cold ligand (10^-12-10^-6 M) with [125I]-monoiodotyrosyl-Tyr2-IGF2 on R- cells; 16 h at 5 °C, 100 mM HEPES pH 7.6, 100 mM NaCl, 1 mM EDTA, 1% BSA; Kd of the tracer 8.2 nM
[18] = biological target: human insulin receptor isoform A (IR-A) in human IM-9 lymphocytes (human) (UniProt P06213); assay: radioligand binding; competition of cold ligand with [125I]-monoiodotyrosyl-TyrA14-insulin on human IM-9 lymphocytes; Kd by one-site fit, Kd of the tracer 0.3 nM

His-tagged IGFBP3, sequence (P17936 28-291): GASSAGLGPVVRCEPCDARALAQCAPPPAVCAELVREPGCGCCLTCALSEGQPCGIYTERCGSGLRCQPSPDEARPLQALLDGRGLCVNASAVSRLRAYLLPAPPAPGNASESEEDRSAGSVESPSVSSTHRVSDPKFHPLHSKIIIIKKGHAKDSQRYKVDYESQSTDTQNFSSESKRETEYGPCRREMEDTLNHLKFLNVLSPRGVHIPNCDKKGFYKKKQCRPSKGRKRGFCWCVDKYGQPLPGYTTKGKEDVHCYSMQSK
mannose-6-phosphate/IGF2 receptor (M6P/IGF2R), native in R- cells (mouse (endogenous in R- cells)), sequence (Q07113 36-2483): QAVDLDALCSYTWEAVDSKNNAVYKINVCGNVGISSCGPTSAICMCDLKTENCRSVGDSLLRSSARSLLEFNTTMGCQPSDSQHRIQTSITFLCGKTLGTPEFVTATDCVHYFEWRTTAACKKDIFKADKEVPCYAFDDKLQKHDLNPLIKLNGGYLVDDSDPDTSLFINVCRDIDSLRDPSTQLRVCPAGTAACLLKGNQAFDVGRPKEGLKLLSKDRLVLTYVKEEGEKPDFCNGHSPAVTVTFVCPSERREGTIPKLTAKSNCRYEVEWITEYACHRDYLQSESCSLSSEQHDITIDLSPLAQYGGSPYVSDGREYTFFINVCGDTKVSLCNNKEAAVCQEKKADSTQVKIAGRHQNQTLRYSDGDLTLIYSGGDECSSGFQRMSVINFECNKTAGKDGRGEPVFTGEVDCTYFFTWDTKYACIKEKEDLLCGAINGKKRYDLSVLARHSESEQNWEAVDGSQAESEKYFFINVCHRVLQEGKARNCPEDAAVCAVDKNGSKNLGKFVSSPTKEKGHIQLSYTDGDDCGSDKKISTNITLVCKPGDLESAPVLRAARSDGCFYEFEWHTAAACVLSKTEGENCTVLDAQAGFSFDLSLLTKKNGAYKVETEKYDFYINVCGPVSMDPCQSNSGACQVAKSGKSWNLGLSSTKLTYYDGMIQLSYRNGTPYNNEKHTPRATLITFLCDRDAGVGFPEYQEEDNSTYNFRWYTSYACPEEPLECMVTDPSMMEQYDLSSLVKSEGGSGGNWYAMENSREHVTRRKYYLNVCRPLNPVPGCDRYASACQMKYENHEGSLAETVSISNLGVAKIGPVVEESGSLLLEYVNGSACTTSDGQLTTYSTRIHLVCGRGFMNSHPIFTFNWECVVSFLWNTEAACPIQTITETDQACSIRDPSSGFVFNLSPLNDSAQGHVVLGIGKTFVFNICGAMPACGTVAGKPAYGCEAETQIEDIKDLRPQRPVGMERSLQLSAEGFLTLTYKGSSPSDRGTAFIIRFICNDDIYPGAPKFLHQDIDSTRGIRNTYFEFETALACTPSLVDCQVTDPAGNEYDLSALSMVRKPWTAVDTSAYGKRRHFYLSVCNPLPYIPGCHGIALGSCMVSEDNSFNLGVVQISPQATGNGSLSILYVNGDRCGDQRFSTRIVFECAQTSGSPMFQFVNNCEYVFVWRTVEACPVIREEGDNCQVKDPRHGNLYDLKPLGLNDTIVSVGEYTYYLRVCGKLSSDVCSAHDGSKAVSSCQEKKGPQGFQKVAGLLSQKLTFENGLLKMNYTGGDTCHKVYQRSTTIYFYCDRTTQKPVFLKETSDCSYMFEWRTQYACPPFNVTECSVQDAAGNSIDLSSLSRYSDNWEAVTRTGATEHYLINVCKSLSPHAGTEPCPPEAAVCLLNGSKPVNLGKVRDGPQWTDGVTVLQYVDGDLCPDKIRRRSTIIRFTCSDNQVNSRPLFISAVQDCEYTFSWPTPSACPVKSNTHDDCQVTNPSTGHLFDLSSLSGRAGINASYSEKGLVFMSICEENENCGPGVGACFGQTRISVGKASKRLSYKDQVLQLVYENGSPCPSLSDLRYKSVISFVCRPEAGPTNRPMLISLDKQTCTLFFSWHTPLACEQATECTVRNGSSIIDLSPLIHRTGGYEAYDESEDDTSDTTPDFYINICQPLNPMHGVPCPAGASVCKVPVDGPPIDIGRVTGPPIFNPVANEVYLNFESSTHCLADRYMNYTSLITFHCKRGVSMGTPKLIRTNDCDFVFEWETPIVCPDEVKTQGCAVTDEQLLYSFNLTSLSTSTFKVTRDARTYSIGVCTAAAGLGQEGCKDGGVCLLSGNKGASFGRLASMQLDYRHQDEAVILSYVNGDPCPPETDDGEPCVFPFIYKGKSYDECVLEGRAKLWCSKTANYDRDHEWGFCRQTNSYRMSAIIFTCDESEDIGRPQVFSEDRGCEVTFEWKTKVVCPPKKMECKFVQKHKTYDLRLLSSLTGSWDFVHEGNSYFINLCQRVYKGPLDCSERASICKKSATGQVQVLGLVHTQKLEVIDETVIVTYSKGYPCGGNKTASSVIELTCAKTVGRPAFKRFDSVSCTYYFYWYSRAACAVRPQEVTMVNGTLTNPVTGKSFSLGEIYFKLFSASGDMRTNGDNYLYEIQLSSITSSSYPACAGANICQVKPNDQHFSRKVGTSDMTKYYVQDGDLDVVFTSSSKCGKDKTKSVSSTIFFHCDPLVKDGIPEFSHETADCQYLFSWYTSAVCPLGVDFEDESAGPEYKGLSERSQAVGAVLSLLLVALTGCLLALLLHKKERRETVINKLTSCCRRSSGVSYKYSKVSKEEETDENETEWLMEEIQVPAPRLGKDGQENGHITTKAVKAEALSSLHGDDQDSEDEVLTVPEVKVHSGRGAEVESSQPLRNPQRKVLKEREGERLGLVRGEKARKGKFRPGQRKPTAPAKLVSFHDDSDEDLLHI
IGFBP3:ALS complex, preformed on immobilized His-tagged ALS, sequence (P35858 28-605, chain 1 of 2): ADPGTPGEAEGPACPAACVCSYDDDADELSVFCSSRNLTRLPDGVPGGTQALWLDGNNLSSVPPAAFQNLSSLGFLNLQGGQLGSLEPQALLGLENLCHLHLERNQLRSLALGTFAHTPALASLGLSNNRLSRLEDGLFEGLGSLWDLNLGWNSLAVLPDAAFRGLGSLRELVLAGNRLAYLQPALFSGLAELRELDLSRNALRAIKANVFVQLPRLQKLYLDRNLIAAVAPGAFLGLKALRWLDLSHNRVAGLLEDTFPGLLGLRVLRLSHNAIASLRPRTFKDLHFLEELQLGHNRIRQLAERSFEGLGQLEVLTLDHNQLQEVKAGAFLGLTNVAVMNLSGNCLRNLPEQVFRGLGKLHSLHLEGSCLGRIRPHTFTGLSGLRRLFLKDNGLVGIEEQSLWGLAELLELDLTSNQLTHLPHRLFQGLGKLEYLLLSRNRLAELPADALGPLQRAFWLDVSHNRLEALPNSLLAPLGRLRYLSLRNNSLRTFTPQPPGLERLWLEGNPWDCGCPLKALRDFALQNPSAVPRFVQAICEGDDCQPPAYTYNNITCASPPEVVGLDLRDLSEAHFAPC
IGFBP3:ALS complex, preformed on immobilized His-tagged ALS, sequence (P17936 28-291, chain 2 of 2, further chain): as the sequence (P17936 28-291) above
Domain-11 of human M6P/IGF2R (D11) (human), sequence (P11717 1514-1648): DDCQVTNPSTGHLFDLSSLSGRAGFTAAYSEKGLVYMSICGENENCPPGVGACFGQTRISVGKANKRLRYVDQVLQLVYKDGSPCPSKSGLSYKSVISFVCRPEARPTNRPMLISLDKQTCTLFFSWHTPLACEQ
native M6P/IGF2R in R- cells (mouse embryonic fibroblasts) (mouse (endogenous in R- cells)), sequence (Q07113 36-2483): as the sequence (Q07113 36-2483) above

Substance: [125I]-monoiodotyrosyl-Tyr2-IGF2 (ligand)
Kd [2]: 0.59 nM

Substance: [^125I]-monoiodotyrosyl-Tyr2-IGF2 (ligand)
Kd [3]: 8.2 nM | Kd [4]: 0.56 nM | Kd [5]: 5.9 nM

Substance: big-IGF2(87) (ligand)
relative binding affinity (% of IGF1) [6]: 14.8% | relative binding affinity (% of IGF2) [7]: 73% | relative binding affinity (% of human insulin) [8]: 7.1% | relative binding affinity (% of human insulin) [9]: 2.7% | relative binding affinity (% of IGF2) [10]: 58% | relative binding affinity (% of IGF2) [11]: 70% | relative binding affinity (% of IGF2) [12]: 227%

Substance: big-IGF2(104), non-glycosylated (ligand)
Kd [13]: 5.58 nM | Kd [14]: 2.48 nM | Kd [15]: 8.83 nM | Kd [16]: 0.14 nM | Kd [17]: 0.14 nM | Kd [1]: 0.19 nM | Kd [18]: 2.75 nM

Substance: pro-IGF2(156), non-glycosylated (from UniProt P01344 25-180) (ligand)
Kd [1]: 2.31 nM

Second part, the substance after the results:

Kd [1]: 1.29 nM
Substance: Insulin-like Growth Factor-2 (IGF2), native mature 67-amino-acid protein (from UniProt P01344 25-91) (ligand)

Kd [13]: 1.63 nM | Kd [14]: 1.6 nM | Kd [15]: 9.47 nM | Kd [16]: 0.29 nM | Kd [17]: 0.56 nM | Kd [1]: 1.77 nM | Kd [18]: 3.82 nM
Substance: big-IGF2(87), non-glycosylated (ligand)

relative binding affinity (% of IGF1) [6]: 9.7% | relative binding affinity (% of IGF2) [7]: 698% | relative binding affinity (% of human insulin) [8]: 9.8% | relative binding affinity (% of human insulin) [9]: 2.9% | relative binding affinity (% of IGF2) [10]: 17% | relative binding affinity (% of IGF2) [11]: 146% | relative binding affinity (% of IGF2) [12]: 887%
Substance: big-IGF2(104) (ligand)

Reference: article PMC10439913
